Patent publication US20200270321A1

Tests used:
[1] = target: human CD19 (as in Table 11) (human) (UniProt P15391); test: binding to human CD19 after incubation at pH 6.0; method not stated
[2] = target: human CD19 (as in Table 11) (human) (UniProt P15391); test: BIAcore (SPR); format not stated
[3] = target: human CD19 (as in Table 11) (human) (UniProt P15391); test: binding to human CD19 after incubation at pH 7.4; method not stated

human CD19 binding after pH 6.0 incubation [%] [1]: 90%
Kd [2]: 5 nM
human CD19 binding after pH 7.4 incubation [%] [3]: 46%
B1: wild-type humanized anti-human CD19 antibody 8B8 (antibody, V domains shown)
VH: QVQLVQSGAEVKKPGASVKVSCKASGYTFTDYIMHWVRQAPGQGLEWMGYINPYNDGSKYTEKFNGRVTMTSDTSISTAYMELSRLRSDDTAVYYCARGTYYYGSALFDYWGQGTTVTVSS
VL: DIVMTQTPLSLSVTPGQPASISCKSSQSLENSNGNTYLNWYLQKPGQSPQLLIYRVSKRFSGVPDRFSGSGSGTDFTLKISRVEAEDVGVYYCLQLTHVPYTFGQGTKLEIK
